These results are taken from patent US20220363623A1, “IMAGING AND THERAPEUTIC COMPOSITIONS” (priority 2019, published 2022).

Holding throughout (parameters): species or system mice
Series [1] is described as follows: in vivo. Conditions: male, mouse, total radioactivity; for tissue uptake at 1 h: Tumour Uptake % ID/g 1 h pi; for tissue uptake at 18 h: Tumour Uptake % ID/g 18 h pi. How it is done: (§1) PET-CT imaging and Biodistribution. Male Balb/c nude mice (age 8.5 weeks) or Male NSG mice (age 12 weeks) were inoculated subcutaneously on the right flank with 6×10^6 LNCap cells in PBS:Matrigel (1:1). Mice were weighed and tumours measured twice weekly using electronic callipers. Tumour volume (mm^3) was calculated as length×width×height×π/6. Mice were assigned for imaging and biodistribution studies (tumour volumes: 85-450 mm3). ^89Zr-DFOSq-PSMA tracers were then administered intravenously by tail vein injection to 6 mice. At 1, 2, 4 and 18 hr post injection three mice were anaesthetised using isoflurane and placed on the imaging bed of a G8 PET/CT scanner (Perkin Elmer). A CT scan was performed and followed immediately by a 10 min static PET scan. PET images were reconstructed using the maximal likelihood and expectation maximization (ML-EM) algorithm. PET Images were analysed using VivoQuant (Invicro) and Tumour SUVmax or Tumour SUVmax/background average (TBR) determined. After imaging at 18 hr mice were euthanised and selected tissues were excised, weighed and counted using a Capintec (Captus 4000e) gamma counter. A separate cohort of 3 mice was harvested at 1 hr post injection for biodistribution analysis as above. The data was analysed using GraphPad Prism 7 and differences between tracers analysed using a t-test.
(§2) ^89Zr Labelled tracers: The ^89Zr radiolabelled PSMA tracers were injected intravenously via tail vein to LNCaP (human PSMA expressing prostate cancer cell line) tumour bearing mice. At 1, 2, 4 and 18 h post-injection the mice were anaesthetised with isoflurane and imaged over 10 min. The representative PET images of mice injected with ^89Zr radiolabelled PSMA tracers at 1 and 18 hr are shown in FIG. 1 and quantitation of the Tumour SUVmax for each tracer is shown in FIG. 2a. […] There was a trend for higher tumour SUVmax for (4) tracer compared to all other tracers at all time points. […] A comparison of tumour uptake values is shown in FIG. 2b and the tissue biodistribution data for the tracers at 1 and 18 hr is summarised in FIG. 3.
(§3) ^68Ga Labelled tracers: Representative PET images of mice injected with ^68Ga(1) and ^68Ga(4) are shown in FIG. 4 and quantitation of the tumour SUVmax is shown in FIG. 5a. […] Tumour uptake of ^68Ga(4) was 1.6 and 1.8 fold higher than ^68Ga(1) at 1 and 2 hr p.i., respectively. This is consistent with the biodistribution results where tumour % ID/g for ^68Ga(4) was higher than ^68Ga(1) at 1 hr (10.8±1.3 vs 6.5±0.4) and at 2.5 hr (8.6±1.0 vs 4.1±0.5) p.i. […] (6.5±0.4% ID/g at 1 hr vs 4.1±0.5% ID/g at 2.5 hr). In contrast, there was no significant change in ^68Ga(4) tumour retention at 1 and 2.5 p.i. (10.8±1.3% ID/g vs […], FIG. 5b).

The subject of series [2] is LNCaP (human PSMA expressing prostate cancer cell line) tumour. Conditions: mouse, in vivo. How it is done:
as §1, §2, §3

The test system is the same in series [3]. Description: in vivo. Conditions: mouse. How it is done:
as §1, §2, §3

Series [4] relates to AR42J (rat pancreatic cancer cell line) tumour. As to the kind of experiment: in vivo. The following applies: mouse. How it is done:
(§4) PET-CT imaging and Biodistribution of Octreotate/tide Tracers. Female Balb/c nude mice (age 9 weeks) were inoculated subcutaneously on the right flank with 3×10^6 AR42J cells in PBS:Matrigel (1:1). Mice were weighed and tumours measured twice weekly using electronic callipers. Tumour volume (mm^3) was calculated as length^2×width/2. 12 mice were assigned for imaging and biodistribution studies (tumour volumes: 170-550 mm^3). DFOSqTIDE (2.5 MBq) and DFOSqTATE (2.2 MBq) were administered intravenously by tail vein injection to mice on. At 1, 2, 4 and 18 hr post injection three mice were anaesthetised using isoflurane and placed on the imaging bed of a G8 PET/CT scanner (Perkin Elmer). A CT scan was performed which was immediately followed by a 10 min static PET scan. PET images were reconstructed using the maximal likelihood and expectation maximization (ML-EM) algorithm. PET images were analysed using VivoQuant (Invicro) and Tumour SUVmax, Tumour SUVmax/background average (TBR) and Tumour SUVmax/liver average (TLR) determined. After imaging at 18 hr mice were euthanised and selected tissues were excised, weighed and counted using a Capintec (Captus 4000e) gamma counter. A separate cohort of 3 mice was harvested at 1 hr post injection for biodistribution analysis. The data was analysed using GraphPad Prism 7 and differences between tracers analysed using a t-test.
AR42J (rat pancreatic cancer cell line) tumour bearing Balb/c nude mice as described above were injected intravenously via tail vein injection with ^89ZrDFOSqTATE or ^89ZrDFOSqTIDE (2-3 MBq). At 1, 2, 4 and 18 h post-injection the mice were anaesthetised with isoflurane and imaged over 10 min. At 1 hr after injection of DFOSqTIDE and DFOSqTATE, uptake into kidney, tumour and liver was observed. Representative PET images of mice injected with DFOSqTIDE and DFOSqTATE are shown in FIG. 12 and quantitation of the tumour SUVmax for each radiotracer is summarised in FIG. 13a.
^68GaDFOSq-TIDE and ^68GaDFOSq-TATE tracers were injected (2-3 MBq, 1 μg, 0.5 nmol) intravenously via tail vein to AR42J (rat pancreatic cancer cell line) tumour bearing Balb/c nude mice. PET images were acquired at 1 and 2 h post-injection (FIGS. 15a and b). […] Quantification of the uptake in the images using Standard Uptake Value (SUVmax=radioactivity in a tissue/injected activity/BW) confirms the higher uptake for ^68GaDFOSq-TATE (1 h; SUVmax 1.8±0.2, compared to 1.21±0.20, FIG. 15c). The higher tumor uptake of ^68GaDFOSqTATE was also associated with a higher degree of tumor retention at 2 h post injection with only a 5% reduction in SUVmax whereas the tumor SUVmax for ^68GaDFOSqTIDE reduced by 30% ^68GaDFOSqTATE at 2 h post injection. Both tracers clear rapidly from the blood and there is low uptake in bone consistent with stable gallium-68 complexes as well as low uptake in muscle. Both tracers have significant uptake in the kidneys and bladder.

Series [5] can be described thus: in vivo. Conditions: female, Balb/c nude, mouse, iv, total radioactivity. How it is done:
as §4, with “t-test. The high tumor uptake was confirmed by an ex vivo biodistribution study in the same mouse model where mice were injected with either ^68GaDFOSq-TIDE and ^68GaDFOSq-TATE (2-3 MBq, 1 μg, 0.5 nmol) and then euthanised at either 1 h or 2 h after administration. The amount of injected activity per gram of tissue (% IA/g) in the tumor and major organs was quantified (FIG. 16).” for “t-test.”

*1 amine or outer side, *2 acyl side, *3 side chain or, on linkers, in order; H or OH if unused. Where a SMILES comes first, the peptide text is derived from it. Bridges are numbered along the chain shown (N, C = ends). Side-chain parts run from the residue outwards. [ ]: non-standard residue; d: D form. The star is where a group is joined. X1 = O=C([C@@H](Cc1ccccc1)N(c1c(NCCCCCN(O)[*:3])c(=O)c1=O)[*:1])[*:2]; X2 = CC(=O)N(O)CCCCCNC(=O)CCC(=O)N(O)CCCCCN*; Suc = O=C(CCC(=O)[*:2])[*:1]

Regarding `CC(=O)N(O)CCCCCNC(=O)CCC(=O)N(O)CCCCCNC(=O)CCC(=O)N(O)CCCCCNc1c(NCCN(CCNC(=O)CCCC(=O)NCCCCC(NC(=O)NC(CCC(=O)O)C(=O)O)C(=O)O)CCNC(=O)CCCC(=O)NCCCCC(NC(=O)NC(CCC(=O)O)C(=O)O)C(=O)O)c(=O)c1=O` (single isomer, unassigned) [(3), DFOSq-bisPSMA ligand], in “in vivo [1]” (iv), the tissue uptake at 1 h worked out at 5.9 %ID/g and the tissue uptake at 18 h came to 2.5 %ID/g.
As to `CC(=O)N(O)CCCCCNC(=O)CCC(=O)N(O)CCCCCNC(=O)CCC(=O)N(O)CCCCCNc1c(NCc2ccc(C(=O)NCCCCC(NC(=O)NC(CCC(=O)O)C(=O)O)C(=O)O)cc2)c(=O)c1=O` (single isomer, unassigned) [^68Ga(1), metal not drawn], in series [2], the “Gall bladder uptake in PET images” value is recorded as “high uptake”, the “Gut uptake in PET images” value was “high uptake”, the “Kidney uptake in PET images” value is reported as “high uptake” and the “LNCap tumour uptake in PET images” value is “moderate uptake”. In series [2], the “Tumour SUVmax 1 h pi” value was 1.0 ± 0.02 and the “Tumour SUVmax 2 h pi” value was determined as 0.8 ± 0.05. Also, the tissue uptake at 1 h in the series “in vivo [1]” was determined as 6.5 ± 0.38 %ID/g. Further, the tissue uptake at 2.5 h in the series “in vivo [1]” (Tumour Uptake % ID/g 2.5 h pi) was determined as 4.1 ± 0.51 %ID/g. Also, in series [3], the “Tumour Uptake % ID/g 1 h pi” value came to 6.5±0.4 % ID/g and the “Tumour Uptake % ID/g 2.5 h pi” value is 4.1±0.5 % ID/g.
Regarding `CC(=O)N(O)CCCCCNC(=O)CCC(=O)N(O)CCCCCNC(=O)CCC(=O)N(O)CCCCCNc1c(NCc2ccc(C(=O)NCCCCC(NC(=O)NC(CCC(=O)O)C(=O)O)C(=O)O)cc2)c(=O)c1=O` (single isomer, unassigned) [^89Zr(1), metal not drawn], in series [2], the “Tumour SUVmax 1 h pi” value stood at 1.1 ± 0.12, the “Tumour SUVmax 18 h pi” value turned out to be 0.4 ± 0.05 and the “Tumour SUVmax Clearance %” value is 63%. Besides, in “in vivo [1]” (iv), the tissue uptake at 1 h worked out at 4.6 ± 0.45 %ID/g and the tissue uptake at 18 h is 1.7 ± 0.18 %ID/g.
The corresponding values for `CC(=O)N(O)CCCCCNC(=O)CCC(=O)N(O)CCCCCNC(=O)CCC(=O)N(O)CCCCCNc1c(NCCN(CCNC(=O)CCCC(=O)NCc2ccc(C(=O)NCCCCC(NC(=O)NC(CCC(=O)O)C(=O)O)C(=O)O)cc2)CCNC(=O)CCCC(=O)NCc2ccc(C(=O)NCCCCC(NC(=O)NC(CCC(=O)O)C(=O)O)C(=O)O)cc2)c(=O)c1=O` (single isomer, unassigned) [^89Zr(4), metal not drawn] are 3.2 ± 0.30, 1.5 ± 0.18, 54%, 9.3 ± 0.33 %ID/g and 3.7 ± 1.07 %ID/g.
Take `CC(=O)N(O)CCCCCNC(=O)CCC(=O)N(O)CCCCCNC(=O)CCC(=O)N(O)CCCCCNc1c(NCCNC(=O)CN(CCN(CC(=O)O)CC(=O)Nc2ccc(C(=O)NCCCCC(NC(=O)NC(CCC(=O)O)C(=O)O)C(=O)O)cc2)CC(=O)O)c(=O)c1=O` (stereo not shown) [(2), DFOSq-EDTA-PSMA ligand]: in the series “in vivo [1]” (iv), the tissue uptake at 1 h came out at 3.2 %ID/g and the tissue uptake at 18 h was found to be 1 %ID/g.
The corresponding values for `CC(=O)N(O)CCCCCNC(=O)CCC(=O)N(O)CCCCCNC(=O)CCC(=O)N(O)CCCCCNc1c(NCCN(CCNC(=O)CCCC(=O)NCc2ccc(C(=O)NCCCCC(NC(=O)NC(CCC(=O)O)C(=O)O)C(=O)O)cc2)CCNC(=O)CCCC(=O)NCc2ccc(C(=O)NCCCCC(NC(=O)NC(CCC(=O)O)C(=O)O)C(=O)O)cc2)c(=O)c1=O` (stereo not shown) [(4), DFOSq-bisPhPSMA ligand] are 9.3 %ID/g and 3.7 %ID/g.
For the compound `CC(=O)N(O)CCCCCNC(=O)CCC(=O)N(O)CCCCCNC(=O)CCC(=O)N(O)CCCCCNc1c(N[C@H](Cc2ccccc2)C(=O)N[C@H]2CSSC[C@@H](C(=O)N[C@H](C(=O)O)[C@@H](C)O)NC(=O)[C@H]([C@@H](C)O)NC(=O)[C@H](CCCCN)NC(=O)[C@@H](Cc3c[nH]c4ccccc34)NC(=O)[C@H](Cc3ccc(O)cc3)NC2=O)c(=O)c1=O` [DFOSqTATE] (H-[X1]([Suc-X2])CY[dW]KTCT-OH; disulfide 2-7), the “Tumour SUVmax Clearance %” value in series [4] worked out at 58%. For the same compound, in the series “in vivo [5]” (Tumour Uptake % ID/g 1 h pi), the tissue uptake at 1 h worked out at 10.4 ± 0.5 %ID/g. For the same compound, in “in vivo [5]” (Tumour Uptake % ID/g 18 h pi), the tissue uptake at 18 h was found to be 4.9 ± 0.8 %ID/g.
As to `CC(=O)N(O)CCCCCNC(=O)CCC(=O)N(O)CCCCCNC(=O)CCC(=O)N(O)CCCCCNc1c(NCCNC(=O)CN(CCN(CC(=O)O)CC(=O)Nc2ccc(C(=O)NCCCCC(NC(=O)NC(CCC(=O)O)C(=O)O)C(=O)O)cc2)CC(=O)O)c(=O)c1=O` (stereo not shown) [^89Zr(2), metal not drawn], in series [2], the “Tumour SUVmax 1 h pi” value came out at 0.7 ± 0.03, the “Tumour SUVmax 18 h pi” value stood at 0.3 ± 0.01 and the “Tumour SUVmax Clearance %” value was 57%. For the same compound, the “Tumour Uptake % ID/g 1 h pi” value in series [3] (male, iv, 1 h) is 3.2 ± 0.72 % ID/g. Further, the “Tumour Uptake % ID/g 18 h pi” value in series [3] (male, iv, 18 h) came to 0.9 ± 0.09 % ID/g.
